US20240360242A1 (KISOJI BIOTECHNOLOGY, published 2024)

T1: HEK-TROP2 Δ27-104 (human, UniProt P09758)
T1 sequence (membrane protein on transfected HEK cells, looked up): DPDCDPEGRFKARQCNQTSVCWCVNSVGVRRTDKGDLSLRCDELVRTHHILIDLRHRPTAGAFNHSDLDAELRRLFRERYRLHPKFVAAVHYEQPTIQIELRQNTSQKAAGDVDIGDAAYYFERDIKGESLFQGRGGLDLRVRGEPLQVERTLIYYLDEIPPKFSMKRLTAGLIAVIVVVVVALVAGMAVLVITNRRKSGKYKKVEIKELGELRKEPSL

T2: HEK-TROP2 Δ27-114 (human, UniProt P09758)
T2 construct: deletion of residues 27-114, transiently expressed on HEK cells
T2 sequence (membrane protein on transfected HEK cells, looked up): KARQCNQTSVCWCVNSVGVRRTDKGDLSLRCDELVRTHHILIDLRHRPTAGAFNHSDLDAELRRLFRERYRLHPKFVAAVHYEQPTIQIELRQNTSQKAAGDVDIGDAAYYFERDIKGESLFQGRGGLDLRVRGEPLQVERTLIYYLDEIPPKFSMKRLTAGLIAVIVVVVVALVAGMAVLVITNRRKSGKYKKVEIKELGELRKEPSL

T3: HEK-TROP2 Δ27-36
T3 construct: also called TROP2 delta 27-36
T3 membrane protein on transfected HEK cells: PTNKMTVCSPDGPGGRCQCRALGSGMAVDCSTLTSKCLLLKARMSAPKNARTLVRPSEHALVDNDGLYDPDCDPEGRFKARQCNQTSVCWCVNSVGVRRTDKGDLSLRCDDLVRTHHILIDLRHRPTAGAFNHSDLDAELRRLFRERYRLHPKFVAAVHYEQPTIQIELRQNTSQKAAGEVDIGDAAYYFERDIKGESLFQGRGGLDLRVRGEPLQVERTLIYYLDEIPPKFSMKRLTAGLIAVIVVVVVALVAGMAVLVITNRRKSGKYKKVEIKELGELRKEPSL

T4: HEK-TROP2 Δ27-44
T4 construct: also called TROP2 delta 27-44
T4 membrane protein on transfected HEK cells: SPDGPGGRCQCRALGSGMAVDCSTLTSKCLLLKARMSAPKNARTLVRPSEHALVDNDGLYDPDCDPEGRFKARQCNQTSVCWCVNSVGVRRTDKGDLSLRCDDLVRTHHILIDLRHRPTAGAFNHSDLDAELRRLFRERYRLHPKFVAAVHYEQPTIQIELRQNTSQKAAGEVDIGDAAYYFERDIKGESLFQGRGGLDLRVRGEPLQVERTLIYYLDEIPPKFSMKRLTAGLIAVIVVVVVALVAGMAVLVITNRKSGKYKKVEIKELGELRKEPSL

T5: HEK-TROP2 Δ27-73 (human, UniProt P09758)
T5 construct: deletion of residues 27-73, transiently expressed on HEK cells
T5 sequence (membrane protein on transfected HEK cells, looked up): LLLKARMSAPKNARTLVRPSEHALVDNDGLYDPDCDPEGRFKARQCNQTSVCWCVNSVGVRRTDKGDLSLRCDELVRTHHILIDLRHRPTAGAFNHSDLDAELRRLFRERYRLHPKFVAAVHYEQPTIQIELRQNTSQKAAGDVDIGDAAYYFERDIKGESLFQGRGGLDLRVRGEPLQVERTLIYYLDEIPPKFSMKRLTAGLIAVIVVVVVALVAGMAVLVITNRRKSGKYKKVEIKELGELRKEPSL

T6: HEK-TROP2 Δ27-96 (human, UniProt P09758)
T6 construct: deletion of residues 27-96, transiently expressed on HEK cells
T6 sequence (membrane protein on transfected HEK cells, looked up): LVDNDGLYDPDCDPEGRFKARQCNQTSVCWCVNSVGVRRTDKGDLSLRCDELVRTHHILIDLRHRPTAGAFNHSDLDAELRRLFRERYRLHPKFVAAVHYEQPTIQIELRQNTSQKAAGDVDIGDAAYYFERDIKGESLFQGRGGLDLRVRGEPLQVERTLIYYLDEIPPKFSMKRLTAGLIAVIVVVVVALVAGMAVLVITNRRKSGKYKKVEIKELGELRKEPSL

T7: TROP2 delta 27-56 on HEK cells (human, UniProt P09758 1-323)
T7 construct: Human TROP2 with residues 27-56 deleted, transiently transfected into HEK cells; also called TROP2 with 27-56 regions truncated
T7 chain: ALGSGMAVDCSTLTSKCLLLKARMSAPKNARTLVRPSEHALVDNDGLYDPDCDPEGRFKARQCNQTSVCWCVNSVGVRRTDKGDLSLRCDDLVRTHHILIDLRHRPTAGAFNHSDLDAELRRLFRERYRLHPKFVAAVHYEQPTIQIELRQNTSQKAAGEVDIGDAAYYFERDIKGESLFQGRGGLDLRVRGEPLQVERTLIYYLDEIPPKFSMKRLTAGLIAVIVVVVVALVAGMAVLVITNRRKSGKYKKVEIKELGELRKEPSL


How the values were obtained:
Assay in all cases: flow cytometry, 100 nM antibody, transiently transfected HEK cells, APC anti-human Fc
HEK-TROP2 Δ27-104 = biological target: T1, HEK-TROP2 Δ27-104
Experimental: (§1) To determine the effect of TROP2 truncations on the binding ability of anti-TROP2 sdAbs, the HEK parental cells were transiently transfected with human TROP2 mutants by lipofectamine. 24 hours after transfection, cells were collected and stained with anti-TROP2 antibodies (FIG. 13A and FIG. 13B). In brief, 1×10⁵ cells were incubated with an Fc receptor blocking antibody (1/100 dilution) for 10 minutes at room temperature. Anti-TROP2 antibodies were diluted in FACS staining buffer to 100 nM and added and incubated with cells for 30 minutes on ice. After washing three times with FACS staining buffer, APC-conjugated secondary antibodies recognizing the human Fc region (Biolegend, Cat #410712) were mixed with cells. After staining for 30 minutes, cells were washed three times, followed by resuspension into 100 μL of 7-Amino-Actinomycin D (7-AAD) solution (BD Biosciences, Cat #559925).

HEK-TROP2 Δ27-114 = biological target: T2, HEK-TROP2 Δ27-114
Experimental: as §1

HEK-TROP2 Δ27-36 = biological target: T3, HEK-TROP2 Δ27-36
Experimental: as §1

HEK-TROP2 Δ27-44 = biological target: T4, HEK-TROP2 Δ27-44
Experimental: as §1

HEK-TROP2 Δ27-73 = biological target: T5, HEK-TROP2 Δ27-73
Experimental: as §1

HEK-TROP2 Δ27-96 = biological target: T6, HEK-TROP2 Δ27-96
Experimental: as §1

[1] = biological target: T7, TROP2 delta 27-56 on HEK cells
Experimental: as §1

Row | Binder | binding result (HEK-TROP2 Δ27-104) | binding result (HEK-TROP2 Δ27-114) | binding result (HEK-TROP2 Δ27-36) | binding result (HEK-TROP2 Δ27-44) | binding result (HEK-TROP2 Δ27-73) | binding result (HEK-TROP2 Δ27-96) | binding result [1]
1 | KD001 (antibody, human IgG1, V domains shown, also called anti-TROP2 sdAb KD001) VH: QVQLQESGGGMVHPGGSLRLSCAASGFTFSGSDMSWVRQAPGKGPEWVSYITSGGTTYYPDSVKGRFTISRDNAKNTLYLQMNSLTPDDTALYRCAKARLTDSHYVEDAWGQGTQVTVSS | no binding (tested: 100 nM) | no binding (tested: 100 nM) | binds | binds | no binding (tested: 100 nM) | no binding (tested: 100 nM) | no binding (tested: 100 nM)
2 | KD005 (antibody, human IgG1, V domains shown, also called anti-TROP2 sdAb KD005) VH: QVQLQESGGGLVEAGGSLRLSCAASGFTFSGSDMSWVRQAPGKGPEWVSYITSGGTTYYPDSVKGRFTISRDNAKNTLYLQMNSLKPDDTALYRCAKSRLTDSHYVEDAWGQGTQVTVSS | no binding (tested: 100 nM) | no binding (tested: 100 nM) | binds | binds | no binding (tested: 100 nM) | no binding (tested: 100 nM) | no binding (tested: 100 nM)
3 | KD002 (antibody, human IgG1, V domains shown, also called anti-TROP2 sdAb KD002) VH: QVQLQESGGGMVQVGGSLRLSCAASGFPFSSADMSWVRQAPGKGPEWVSYINADGSKTYYPDSVKGRFTISRDNAKNTLYLLMNNLKPEDTALYRCARAKLTDTHYVEDYWGQGTQVTVSS | no binding (tested: 100 nM) | no binding (tested: 100 nM) | binds | binds | no binding (tested: 100 nM) | no binding (tested: 100 nM) | no binding (tested: 100 nM)

The next lines start with the values.

Row | binding result (HEK-TROP2 Δ27-104) | binding result (HEK-TROP2 Δ27-114) | binding result (HEK-TROP2 Δ27-36) | binding result (HEK-TROP2 Δ27-44) | binding result (HEK-TROP2 Δ27-73) | binding result (HEK-TROP2 Δ27-96) | binding result [1] | Binder
4 | no binding (tested: 100 nM) | no binding (tested: 100 nM) | binds | binds | no binding (tested: 100 nM) | no binding (tested: 100 nM) | no binding (tested: 100 nM) | KD004 (antibody, human IgG1, V domains shown, also called anti-TROP2 sdAb KD004) VH: QVQLQESGGGLVQPGRSLRLSCAASGFTFSGSDMSWVRQAPGKGPEWVSYITGSGTTYYPDSVKGRFTTSRDNAKNMLYLQMNSLKPDDTALYRCAKARLTDSHYVEDAWGQGTQVTVSS
5 | no binding (tested: 100 nM) | no binding (tested: 100 nM) | binds | binds | no binding (tested: 100 nM) | no binding (tested: 100 nM) | no binding (tested: 100 nM) | KD003 (antibody, human IgG1, V domains shown, also called anti-TROP2 sdAb KD003) VH: QVQLQESGGGMVQPGGSLRLSCAASGFTFSNYDMSWVRQAPGKGPEWVSYINAGGSNTDYPDSVKGRFTISRDNAKNMLYLLMNNLKPEDTALYRCARAKLTDTHYVEDYWGQGTQVTVSS
6 | no binding (tested: 100 nM) | no binding (tested: 100 nM) | no binding (tested: 100 nM) | no binding (tested: 100 nM) | no binding (tested: 100 nM) | no binding (tested: 100 nM) | no binding (tested: 100 nM) | KD007 (antibody, human IgG1, V domains shown, also called anti-TROP2 sdAb KD007) VH: QVQLQESGGGLVQPGGSLRLSCAASGFAFSFYAMAWYRQAPGKQRDMVATITAYGNTNYADSVKGRFTTSRDNAKNTVYLQMNSLKPEDTAVYVCNANLPSASHNYWGQGTQVTVSS
